± gives the standard deviation of the averaged measurements.
Columns and labels:
Assay in all cases: protein stability index of tFT-peptide fusion (C-terminal peptide) (PSI (0-1 scale)); higher = more stable (slower turnover)
Saccharomyces cerevisiae [1] = details: temperature: 30 C
Method: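 MPS profiling in S. cerevisiae of the yeast C-terminome library: the last 12 aa of each annotated ORF are fused to the C-terminus of a sfGFP-mCherry timer, after a GGGS linker. Cells are FACS-sorted into 8 mCherry/sfGFP bins and deep-sequenced. PSI runs from 0 (unstable) to 1 (stable); wild type and das1Δ backgrounds, two technical replicates each.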

Saccharomyces cerevisiae [2] = details: genetic background: wild type; temperature: 30 C
Saccharomyces cerevisiae [3] = tested on: Saccharomyces cerevisiae
Method: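 MPS profiling in S. cerevisiae of the tFT-X12 degron library: putative degron peptides plus stable controls, 12 aa, fused to the C-terminus of a sfGFP-mCherry timer. Cells are FACS-sorted into 8 mCherry/sfGFP bins and deep-sequenced. PSI runs from 0 (unstable) to 1 (stable). Backgrounds are wild type, das1Δ and doa10Δ at 30 °C, and wild type, das1Δ, cdc34-1 and cdc53-1 at 37 °C; 2-3 technical replicates each.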

[4] = genetic background: das1 deletion
[5] = genetic background: cdc34-1, temperature: 37 C
[6] = genetic background: cdc53-1, temperature: 37 C
[7] = genetic background: das1 deletion, temperature: 30 C
[8] = genetic background: das1 deletion, temperature: 37 C
[9] = genetic background: doa10 deletion, temperature: 30 C
[10] = genetic background: wild type, temperature: 30 C
[11] = genetic background: wild type, temperature: 37 C

Sequence	protein stability index (Saccharomyces cerevisiae [1]; [4])	protein stability index (Saccharomyces cerevisiae [1]; genetic background: wild type)	protein stability index (Saccharomyces cerevisiae [2])	protein stability index (Saccharomyces cerevisiae [3]; [5])	protein stability index (Saccharomyces cerevisiae [3]; [6])	protein stability index (Saccharomyces cerevisiae [3]; [7])	protein stability index (Saccharomyces cerevisiae [3]; [8])	protein stability index (Saccharomyces cerevisiae [3]; [9])	protein stability index (Saccharomyces cerevisiae [3]; [10])	protein stability index (Saccharomyces cerevisiae [3]; [11])
KDKKKDKSNSSI [HMO1 C-terminal 12 aa]	0.7022 ± 0.0049	0.691 ± 0.052								
RVDGKIVVTPQI [RPC53 C-terminal 12 aa]	0.7011 ± 0.0011	0.694 ± 0.012								
GVEKYWGILSNE [SCW4 C-terminal 12 aa]	0.723 ± 0.0089	0.726 ± 0.039								
ANLRAYFGPGFT [BUD6 C-terminal 12 aa]	0.719 ± 0.017	0.691 ± 0.0094								
SFLFGLYLLLHP [SPR2 C-terminal 12 aa]	0.4995 ± 0.0033	0.484 ± 0.014								
GNTGSGGYDNAW [RPB3 C-terminal 12 aa]	0.704 ± 0.052	0.723 ± 0.026								
DKSTFGLSPVKI [GRS2 C-terminal 12 aa]	0.691 ± 0.033	0.666 ± 0.0084								
LQRLCKKYPEIY [RFA3 C-terminal 12 aa]	0.709 ± 0.015	0.703 ± 0.02								
DPLYYVYCLHMP [NAT4 C-terminal 12 aa]	0.6582 ± 0.0016	0.643 ± 0.0089								
TVSNETKEARET [SPT14 C-terminal 12 aa]	0.6843 ± 0.0053	0.6715 ± 0.0044								
DKKLEEQLRDLV [MTC3 C-terminal 12 aa]	0.6866 ± 0.0029	0.689 ± 0.052								
RHISRLSRLLCR [YGR273C C-terminal 12 aa]	0.6071 ± 0.00082	0.621 ± 0.027								
VFKSKCKKIYIG [DGR1 C-terminal 12 aa]	0.7125 ± 0.0067	0.457 ± 0.04								
QPLLPCFFRRAV [YER147C-A C-terminal 12 aa]	0.691 ± 0.011	0.4308 ± 0.0042								
TIDFFDPVKLKR [YEL025C C-terminal 12 aa]	0.724 ± 0.008	0.755 ± 0.015								
SRGHDLASEYPL [ERS1 C-terminal 12 aa]	0.706 ± 0.015	0.682 ± 0.0085								
TDISGEKNSSKI [RLM1 C-terminal 12 aa]	0.7039 ± 0.0055	0.756 ± 0.031								
QSLYKDATSHWL [GYP1 C-terminal 12 aa]	0.7085 ± 0.0033	0.6825 ± 0.0036								
SYEIFEGSKKVM [CET1 C-terminal 12 aa]	0.699 ± 0.033	0.6785 ± 0.0039								
EFVVQSLRSRNQ [YFR018C C-terminal 12 aa]	0.7231 ± 0.0049	0.703 ± 0.035								
QNLLPAEKFTHN [CTR1 C-terminal 12 aa]	0.6962 ± 0.0032	0.663 ± 0.0075								
FYSLCEKGGYLK [BPT1 C-terminal 12 aa]	0.679 ± 0.014	0.66733 ± 0.00062								
DDRPIYKRFFSS [HXT9 C-terminal 12 aa]	0.7117 ± 0.0052	0.654 ± 0.023								
GVIIELGSWSAW [YDR415C C-terminal 12 aa]	0.7055 ± 0.0066	0.71701 ± 0.00054								

Sequence	protein stability index (Saccharomyces cerevisiae [1]; [4])	protein stability index (Saccharomyces cerevisiae [1]; genetic background: wild type)	protein stability index (Saccharomyces cerevisiae [2])	protein stability index (Saccharomyces cerevisiae [3]; [5])	protein stability index (Saccharomyces cerevisiae [3]; [6])	protein stability index (Saccharomyces cerevisiae [3]; [7])	protein stability index (Saccharomyces cerevisiae [3]; [8])	protein stability index (Saccharomyces cerevisiae [3]; [9])	protein stability index (Saccharomyces cerevisiae [3]; [10])	protein stability index (Saccharomyces cerevisiae [3]; [11])
ATAREWTKKYAV [UBC4 C-terminal 12 aa]	0.702 ± 0.0071	0.7122 ± 0.0016								
DLDFLGSDIEFE [HFM1 C-terminal 12 aa]	0.718 ± 0.016	0.7077 ± 0.002								
SPFIPKKRKPRS [SEN1 C-terminal 12 aa]	0.6983 ± 0.0065	0.704 ± 0.036								
FRILVGCRVVLM			0.426 ± 0.021	0.429 ± 0.0069	0.51 ± 0.077	0.355 ± 0.028	0.5047 ± 0.00065	0.311 ± 0.0097	0.343 ± 0.051	0.483 ± 0.016
DDESLVGRWRKV			0.365 ± 0.11	0.647 ± 0.011	0.7263 ± 0.00098	0.6402 ± 0.0045	0.738 ± 0.011	0.25 ± 0.0057	0.313 ± 0.014	0.547 ± 0.019
GPNWCSVCQGVG			0.453 ± 0.015	0.421 ± 0.03	0.477 ± 0.028	0.43 ± 0.011	0.4926 ± 0.0034	0.446 ± 0.0064	0.426 ± 0.013	0.4733 ± 0.00063
LGGVGTLVHCFV			0.452 ± 0.053	0.615 ± 0.026	0.635 ± 0.016	0.36 ± 0.022	0.607 ± 0.0081	0.351 ± 0.013	0.375 ± 0.014	0.597 ± 0.02
LPLHPHRSRYLV			0.21 ± 0.021	0.593 ± 0.033	0.691 ± 0.018	0.674 ± 0.019	0.702 ± 0.031	0.101 ± 0.015	0.0982 ± 0.0075	0.203 ± 0.02
PRSFFYIQFVFA			0.324 ± 0.0069	0.301 ± 0.016	0.369 ± 0.025	0.233 ± 0.016	0.431 ± 0.011	0.194 ± 0.011	0.224 ± 0.022	0.375 ± 0.014
RVCVFVLFGLCF			0.383 ± 0.011	0.352 ± 0.041	0.401 ± 0.0075	0.324 ± 0.04	0.48 ± 0.0059	0.309 ± 0.0047	0.315 ± 0.022	0.441 ± 0.0053
GLRLRCPLLLSL			0.383 ± 0.028	0.354 ± 0.018	0.341 ± 0.018	0.315 ± 0.049	0.47 ± 0.011	0.507 ± 0.023	0.324 ± 0.013	0.425 ± 0.0045
VAALFPPLRFLN			0.286 ± 0.045	0.554 ± 0.0075	0.711 ± 0.008	0.653 ± 0.017	0.734 ± 0.014	0.0912 ± 0.013	0.122 ± 0.036	0.224 ± 0.031
LPSPPSSPPLRP			0.508 ± 0.019	0.6542 ± 0.0027	0.57161 ± 0.00026	0.597 ± 0.0064	0.732 ± 0.045	0.5877 ± 0.0035	0.599 ± 0.017	0.701 ± 0.039
FICLLFSCVYLG			0.41 ± 0.072	0.51 ± 0.025	0.535 ± 0.013	0.464 ± 0.026	0.593 ± 0.039	0.3776 ± 0.0014	0.382 ± 0.026	0.5293 ± 0.005
SVSRIFRTFSCY			0.321 ± 0.07	0.627 ± 0.023	0.759 ± 0.054	0.668 ± 0.013	0.681 ± 0.047	0.216 ± 0.035	0.224 ± 0.0094	0.396 ± 0.041
PPSPVPPIWYLA			0.372 ± 0.0055	0.636 ± 0.037	0.7595 ± 0.0041	0.707 ± 0.017	0.753 ± 0.029	0.233 ± 0.0083	0.261 ± 0.045	0.417 ± 0.019
GLWLCRGLVRAW			0.43 ± 0.04	0.349 ± 0.026	0.382 ± 0.021	0.299 ± 0.021	0.46 ± 0.009	0.253 ± 0.001	0.289 ± 0.021	0.438 ± 0.014
VGPLAPVCLLVL			0.459 ± 0.046	0.445 ± 0.025	0.4817 ± 0.0043	0.36 ± 0.038	0.516 ± 0.013	0.325 ± 0.012	0.359 ± 0.019	0.477 ± 0.0057
LRQKIIYWWLWL			0.313 ± 0.0047	0.478 ± 0.019	0.488 ± 0.021	0.472 ± 0.03	0.613 ± 0.008	0.255 ± 0.011	0.245 ± 0.011	0.3523 ± 0.001
CVEACVWYNAGL			0.7382 ± 0.0062	0.745 ± 0.046	0.782 ± 0.024	0.662 ± 0.024	0.774 ± 0.027	0.6577 ± 0.004	0.687 ± 0.031	0.764 ± 0.015
CSKGLSILLLLL			0.41 ± 0.0064	0.636 ± 0.055	0.672 ± 0.028	0.469 ± 0.021	0.634 ± 0.028	0.301 ± 0.018	0.321 ± 0.034	0.53 ± 0.012
LCARVCITFNIV			0.457 ± 0.016	0.517 ± 0.033	0.578 ± 0.054	0.458 ± 0.013	0.4975 ± 0.0038	0.4011 ± 0.004	0.438 ± 0.035	0.481 ± 0.014
SGFLRFRGLVCY			0.359 ± 0.019	0.396 ± 0.016	0.445 ± 0.021	0.288 ± 0.043	0.503 ± 0.0067	0.233 ± 0.0028	0.278 ± 0.038	0.464 ± 0.008
TVETYNRARKAS			0.373 ± 0.075	0.663 ± 0.0089	0.674 ± 0.014	0.631 ± 0.038	0.7 ± 0.015	0.218 ± 0.013	0.232 ± 0.039	0.412 ± 0.005

From the supplement of paper PMC10724198
